Measured values as given in article PMC4148193, “Chromatin Insulator Factors Involved in Long-Range DNA Interactions and Their Role in the Folding of the Drosophila Genome” (PLoS Genetics, 2014).
Blank lines part the entries; values can stand above or below the binder they belong to.

Tests used:
[1] = biological target: the molecule itself; test: SEC; gel-filtration analysis of CP190-BTB/POZ; conditions not shown
[2] = biological target: T1, Chromator, full-length, His-tagged (Drosophila, UniProt Q86BS3 1-926); test: fluorescence polarisation; fluorescence anisotropy of CP190-BTB/POZ-Cy5 as reporter of Chromator binding; apparent affinity; conditions: both partners purified
T1 construct: Chromator (Chriz), Drosophila; amplified from S2 cell cDNA; also called Chriz; source: E. coli BL21 (DE3)-pLysS, purified
T1 sequence (looked up): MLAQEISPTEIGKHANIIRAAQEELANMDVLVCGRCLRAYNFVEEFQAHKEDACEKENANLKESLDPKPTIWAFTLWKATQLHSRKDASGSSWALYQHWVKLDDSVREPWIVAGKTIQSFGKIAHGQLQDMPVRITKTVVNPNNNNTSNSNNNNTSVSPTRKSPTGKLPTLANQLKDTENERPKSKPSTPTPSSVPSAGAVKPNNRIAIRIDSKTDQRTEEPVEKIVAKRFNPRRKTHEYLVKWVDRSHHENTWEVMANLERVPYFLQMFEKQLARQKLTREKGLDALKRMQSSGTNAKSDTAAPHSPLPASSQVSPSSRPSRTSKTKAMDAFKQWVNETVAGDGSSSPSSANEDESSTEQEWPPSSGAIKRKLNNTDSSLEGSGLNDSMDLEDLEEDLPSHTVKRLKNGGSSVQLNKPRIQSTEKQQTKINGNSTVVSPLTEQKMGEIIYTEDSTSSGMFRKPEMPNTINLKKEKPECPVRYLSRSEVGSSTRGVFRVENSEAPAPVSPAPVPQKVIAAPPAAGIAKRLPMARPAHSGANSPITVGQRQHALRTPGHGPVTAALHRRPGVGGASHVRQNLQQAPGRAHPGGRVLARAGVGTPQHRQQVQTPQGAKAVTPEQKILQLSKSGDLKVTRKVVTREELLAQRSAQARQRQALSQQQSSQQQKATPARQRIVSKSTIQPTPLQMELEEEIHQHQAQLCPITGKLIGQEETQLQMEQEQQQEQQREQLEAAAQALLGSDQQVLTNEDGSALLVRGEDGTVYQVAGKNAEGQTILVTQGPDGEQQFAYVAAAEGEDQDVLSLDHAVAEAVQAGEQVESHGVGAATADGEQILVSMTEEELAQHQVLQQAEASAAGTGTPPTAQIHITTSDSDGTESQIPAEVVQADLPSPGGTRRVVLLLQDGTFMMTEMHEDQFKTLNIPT

CP190 = biological target: T2, CP190 (Drosophila, UniProt Q24478 1-1096); test: fluorescence anisotropy; Hill n=2±0.3; 20 uM ZnSO4; FA/FCS: 30 mM Tris/HCl pH 7.5, 100 mM NaCl, 20 uM ZnSO4, 5 mM mercaptoethanol, 0.01 mg/ml BSA, 0.004% Tween20, 2.5 nM DNA; EMSA: 150 mM NaCl, 30 mM Tris/HCl pH; conditions: protein: recombinant; tags: N-term 6xHis; blunt
T2 sequence: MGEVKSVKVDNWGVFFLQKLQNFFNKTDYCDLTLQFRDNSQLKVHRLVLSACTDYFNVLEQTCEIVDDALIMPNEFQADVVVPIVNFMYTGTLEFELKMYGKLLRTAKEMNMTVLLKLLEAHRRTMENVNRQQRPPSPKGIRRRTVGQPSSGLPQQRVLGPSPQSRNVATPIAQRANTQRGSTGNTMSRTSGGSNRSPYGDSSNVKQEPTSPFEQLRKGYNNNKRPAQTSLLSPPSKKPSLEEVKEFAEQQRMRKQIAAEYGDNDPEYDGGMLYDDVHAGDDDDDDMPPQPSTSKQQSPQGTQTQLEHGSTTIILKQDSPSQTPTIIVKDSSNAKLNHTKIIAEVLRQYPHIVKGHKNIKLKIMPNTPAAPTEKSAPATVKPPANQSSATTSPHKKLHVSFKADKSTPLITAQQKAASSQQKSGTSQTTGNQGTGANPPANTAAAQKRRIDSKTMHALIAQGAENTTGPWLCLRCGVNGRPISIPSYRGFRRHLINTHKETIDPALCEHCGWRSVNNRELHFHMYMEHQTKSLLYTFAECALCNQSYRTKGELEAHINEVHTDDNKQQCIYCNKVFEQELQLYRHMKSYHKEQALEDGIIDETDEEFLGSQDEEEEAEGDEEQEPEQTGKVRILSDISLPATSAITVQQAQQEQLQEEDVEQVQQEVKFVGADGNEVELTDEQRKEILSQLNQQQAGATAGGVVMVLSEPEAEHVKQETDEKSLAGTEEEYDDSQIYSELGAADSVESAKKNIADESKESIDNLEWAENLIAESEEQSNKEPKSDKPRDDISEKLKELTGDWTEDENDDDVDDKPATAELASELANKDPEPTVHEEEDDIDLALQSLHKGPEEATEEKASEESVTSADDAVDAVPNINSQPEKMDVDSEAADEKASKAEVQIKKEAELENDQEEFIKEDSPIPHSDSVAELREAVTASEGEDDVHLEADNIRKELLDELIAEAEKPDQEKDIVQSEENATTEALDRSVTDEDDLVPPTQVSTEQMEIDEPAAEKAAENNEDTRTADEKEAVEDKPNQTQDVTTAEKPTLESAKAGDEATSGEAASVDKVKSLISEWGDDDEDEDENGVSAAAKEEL

BEAF32 (BEAF32B) = biological target: T3, BEAF32 (BEAF32B) (Drosophila, UniProt Q94513 1-282); test: fluorescence anisotropy; single-site fit; 20 uM ZnSO4; FA/FCS: 30 mM Tris/HCl pH 7.5, 100 mM NaCl, 20 uM ZnSO4, 5 mM mercaptoethanol, 0.01 mg/ml BSA, 0.004% Tween20, 2.5 nM DNA; EMSA: 150 mM NaCl, 30 mM Tris/HCl pH; conditions: protein: recombinant; tags: N-term MBP; C-term 6xHis; blunt
T3 sequence: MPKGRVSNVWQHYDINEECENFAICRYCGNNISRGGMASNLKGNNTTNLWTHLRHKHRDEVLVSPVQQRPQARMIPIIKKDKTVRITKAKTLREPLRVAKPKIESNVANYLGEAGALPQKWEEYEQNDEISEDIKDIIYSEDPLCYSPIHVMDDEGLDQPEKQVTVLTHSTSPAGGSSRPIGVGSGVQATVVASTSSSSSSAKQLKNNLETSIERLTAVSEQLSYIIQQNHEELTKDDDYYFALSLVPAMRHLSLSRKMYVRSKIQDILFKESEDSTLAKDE

B1: CP190-BTB/POZ (BTB/POZ domain of CP190), His-tagged (domain or fragment, Drosophila)
chain: MGEVKSVKVDNWGVFFLQKLQNFFNKTDYCDLTLQFRDNSQLKVHRLVLSACTDYFNVLEQTCEIVDDALIMPNEFQADVVVPIVNFMYTGTLEFELKMYGKLLRTAKEMNMTVLLKLLEAHRRTMENVNRQQR
notes: N-terminal BTB/POZ domain of CP190, Drosophila; source: E. coli BL21 (DE3)-pLysS, purified
stoichiometry N [1]: 2

Kd [2]: ~50 nM
B2: CP190-BTB/POZ-Cy5 (CP190-BTB/POZ Cy5-labelled on its N-terminal) (domain or fragment, Drosophila)
chain: MGEVKSVKVDNWGVFFLQKLQNFFNKTDYCDLTLQFRDNSQLKVHRLVLSACTDYFNVLEQTCEIVDDALIMPNEFQADVVVPIVNFMYTGTLEFELKMYGKLLRTAKEMNMTVLLKLLEAHRRTMENVNRQQR
modifications: Cy5 on the N-terminal
notes: N-terminal BTB/POZ domain of CP190, Drosophila; same construct as m4, labelled with Cy5; Same protein as m4 with a Cy5 label; source: E. coli BL21 (DE3)-pLysS, purified

B3: DNANS (dsDNA)
DNA 1: GGACAGGTATTGTGCCATACTGACCACATCGTCTTGGTCTATAAGCTCCACGACATCC
DNA 2: GGATGTCGTGGAGCTTATAGACCAAGACGATGTGGTCAGTATGGCACAATACCTGTCC
Kd (CP190): 109 ± 5 nM
Kd (BEAF32 (BEAF32B)): 165 ± 30 nM
